Laboratory results reported in patent US20110086767A1, “MUTANTS OF GLYCOSIDE HYDROLASES AND USES THEREOF FOR SYNTHESIZING COMPLEX OLIGOSACCHARIDES AND DISACCHARIDE INTERMEDIATES” (Institut Pasteur, priority 2008, published 2011).
Entries after “also recorded” stand apart in the source; their conditions may differ.

Experiments:
Type in all cases: biochemical
[1] = Kinetic parameters towards sucrose donor
Experimental: Enzyme assays were carried out in a total volume of 2 mL containing pure enzyme (0.073 mg, 0.153 mg and 0.092 mg when using A289P-F290C, A289P-F2901 and A289P-F290L, respectively).
Kinetic studies of AS variants were performed in the presence of sucrose (0-500 mM). At regular time intervals (2-5 min), aliquots (200 μL) were removed, heated (95° C., 2 min) and centrifuged (18000 g, 5 min) All the samples were filtered on a 0.22 μm membrane and analyzed using HPLC material previously described. The initial rate of sucrose consumed, corresponding to the initial rate of fructose released, was expressed in mole of fructose released per minute and per gram of enzyme. The kinetic parameters kcat and Km were calculated using Eadie-Hofstee plot.

[2] = Kinetics of F290K and ASNPwt towards sucrose
Experimental: Enzyme assays were carried out in a total volume of 2 mL containing pure enzyme (0.115 mg and 0.106 mg when using ASNPwt and F290K, respectively). Catalytic efficiency (Eff=kcat/KM) of ASNPwt and F290K variant was determined with both sucrose (D=Donor) and α-D-GlcpNAc-OAll (A=Acceptor) as variable substrates. […] For the determination of the catalytic efficiency for A, D was held constant at 250 mM and A was varied between 0 and 250 mM. Experiments were performed until A and D solubility limits were reached. For each experiment, the reaction velocity corresponding to the acceptor glucosylation was determined by the formation of α-D-Glcp-(1→4)-α-D-GlcpNAc-OAll (called Vi(Dp2)), corresponding to the kinetics of the reaction of interest.
(§1) Initial velocities were fitted to the Michaelis-Menten equation using Sigma-Plot. As saturation was not achieved with the mutant, efficiency was calculated by linear regression analysis of the velocity versus substrate concentration plot. Aliquots (200 μL) were removed between 0 and 60 min (at which time product formation was still linear with respect to time), heated at 95° C. for 5 min and centrifuged at 18 000 g for 5 min. The final mixtures were filtered on a 0.22 um membrane and analyzed using HPLC material previously described. […]

[3] = Kinetics of F290K and ASNPwt in the presence of acceptor α-D-GlcpNAc-OAll
Experimental: Enzyme assays were carried out in a total volume of 2 mL containing pure enzyme (0.115 mg and 0.106 mg when using ASNPwt and F290K, respectively). Catalytic efficiency (Eff=kcat/KM) of ASNPwt and F290K variant was determined with both sucrose (D=Donor) and α-D-GlcpNAc-OAll (A=Acceptor) as variable substrates. For the determination of the catalytic efficiency for D, A was held constant at 250 mM and D was varied between 0 and 600 mM. For the determination of the catalytic efficiency for A, D was held constant at 250 mM and A was varied between 0 and 250 mM. Experiments were performed until A and D solubility limits were reached. For each experiment, the reaction velocity corresponding to the acceptor glucosylation was determined by the formation of α-D-Glcp-(1→4)-α-D-GlcpNAc-OAll (called Vi(Dp2)), corresponding to the kinetics of the reaction of interest.
as §1

[4] = HPLC screening of the single-mutant amylosucrase library for glucosylation of D-GlcpNAc; settings: acceptor D-GlcpNAc
Experimental: The protocol was established to enable the rapid identification of clones for which D-GlcpNAc glucosylation was improved. To obtain higher amounts of enzymes and facilitate detection of glucosylated compounds upon HPLC screening, mutants were produced in 96-DeepWell Format plates. Storage microplates containing monomutants were thawed and replicated to inoculate a starter culture in 96-well microplates containing, in each well, 150 μL LB medium supplemented with ampicillin (100 μg/mL). After growth for 24 h at 30° C. under agitation (200 rpm), plates were duplicated into 96-Deep Well plates containing, in each well, 1.1 mL LB medium supplemented with ampicillin (100 μg/mL) and IPTG (1 mM) to induce GST-AS expression. Cultures were then grown for 24 h at 30° C. under agitation (200 rpm). Plates were centrifuged (20 min, 3000 g, 4° C.) and the supernatant was removed. The cell pellet was resuspended in 200 μL of lysozyme (0.5 mg/mL), followed by freezing at −80° C. for 8 to 12 h. After thawing at room temperature, 100 μL of sucrose and 100 μL of acceptor (each at a final concentration of 73 mM) were added to each well. Enzymatic reaction was incubated at 30° C. during 24 h under agitation. The DeepWell plates were then centrifuged (20 min, 3000 g, 4° C.) and 300 μL of the supernatant was transferred to a filter micro-plate (PVDF 0.2 μm) to be clarified. […]
Efficiency of the glucosylation reaction was evaluated by HPLC analysis of the acceptor reaction product synthesized when using D-GlcpNAc as acceptor using a Dionex P 680 series pump, a Shodex RI 101 series refractometer, a Dionex UVD 340 UV/Vis detector and an autosampler HTC PAL. […]
For each of the 7 selected positions, 19 single mutants were generated (corresponding to each possible amino acid change). […] Both sucrose consumption and disaccharide formation were determined in order to calculate the glucosylation rate defined as the molar ratio of monoglucosylated acceptor versus/sucrose consumed.

B1: F290K: single mutant F290K of N. polysaccharea amylosucrase 1G5A (protein)
chain: SPNSQYLKTRILDIYTPEQRAGIEKSEDWRQFSRRMDTHFPKLMNELDSVYGNNEALLPMLEMLLAQAWQSYSQRNSSLKDIDIARENNPDWILSNKQVGGVCYVDLFAGDLKGLKDKIPYFQELGLTYLHLMPLFKCPEGKSDGGYAVSSYRDVNPALGTIGDLREVIAALHEAGISAVVDFIFNHTSNEHEWAQRCAAGDPLFDNFYYIFPDRRMPDQYDRTLREIFPDQHPGGFSQLEDGRWVWTTFNSFQWDLNYSNPWVFRAMAGEMLFLANLGVDILRMDAVAKIWKQMGTSCENLPQAHALIRAFNAVMRIAAPAVFFKSEAIVHPDQVVQYIGQDECQIGYNPLQMALLWNTLATREVNLLHQALTYRHNLPEHTAWVNYVRSHDDIGWTFADEDAAYLGISGYDHRQFLNRFFVNRFDGSFARGVPFQYNPSTGDCRVSGTAAALVGLAQDDPHAVDRIKLLYSIALSTGGLPLIYLGDEVGTLNDDDWSQDSNKSDDSRWAHRPRYNEALYAQRNDPSTAAGQIYQDLRHMIAVRQSNPRFDGGRLVTFNTNNKHIIGYIRNNALLAFGNFSEYPQTVTAHTLQAMPFKAHDLIGGKTVSLNQDLTLQPYQVMWLEIA
- V250mM (initial rate of sucrose consumption) ([1]; 250 mM sucrose): 110 µmol/min/g
- behaviour (at high concentration) ([1]; sucrose donor alone): no kinetic saturation; also recorded: linear
- decrease of kcat/Km in the presence of sucrose alone ([2]; sucrose alone, compared with ASNPwt, linear regression): 40 fold
- saturation with sucrose ([2]; sucrose varied between 0 and 600 mM): could not be saturated
- increase of the efficiency of the mutant compared to ASNPwt [3]: 130 fold
- increase of glucosylation rate compared to the wild type [4]: 45 fold
